In general, Kd refers to the equilibrium constant for the complex coming apart.

These results are taken from patent publication US20190211317A1, “PEPTIDES AND NANOPARTICLES FOR INTRACELLULAR DELIVERY OF GENOME-EDITING MOLECULES” (Aadigen, LLC, priority 2016, published 2019).

For this assay, the target named is CY5-CAS9:sgRNA complex (1:1 molar ratio) (S. pyogenes) (UniProt Q99ZW2). Briefly: fluorescence titration of 5 nM CY5-CAS9:sgRNA (1:1) with increasing peptide, quadratic fit.

For CADY (peptide), the Kd is 21 nM.
